The supplement of paper PMC12042874
± gives the uncertainty stated by the source.

Assay: amyloid nucleation score (Sup35N fusion, yeast selection) (log enrichment); library NNK2; higher = more nucleation; inactive = no reads after selection
Summary of the method: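 Yeast lacking psi expressed peptides of 20 random codons fused to Sup35N, received 100 μM copper sulfate for 24 hours, and were then grown for 7 days at 30°C on medium lacking adenine and uracil. Illumina sequencing of input and output plasmid inserts provided the reads. Nucleation scores are DiMSum log enrichments of output over input, centred on the mode of non-aggregating sequences. Any sequence with under 100 input reads was excluded.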

In order of falling amyloid nucleation score:
1. IMMQDWGIGFAFIGSPCRCD  9.01 ± 0.048
2. IYRTYYGINACLINLCMFDN  7.55 ± 0.078
3. VNLMVYASVIIGCAVARS  7.06 ± 0.045
4. AQNYYMY  6.88 ± 0.087
5. THSNWTKNSVSSIYCIKILF  6.647 ± 0.037
6. PFFLMISAVISHHNEHRHTM  5.926 ± 0.058
7. DMLEKKE  5.921 ± 0.059
8. HYAANVVRISYCGGHSRANF  5.1 ± 0.077
9. MSKGVYIYNIYYLVMSGVPL  4.9 ± 0.063
10. RLELVTVVSVSMHDLRHRRR  4.75 ± 0.071
11. CFVIGLSMNLGHAGHKVWMT  4.75 ± 0.086
12. TGDMQVAVYCVILGGFSMGM  4.44 ± 0.055
13. GISVLRQTVFDLSIFIPHTS  4.42 ± 0.055
14. MFFFYKFMKDKIGN  4.37 ± 0.051
15. PAHVSYILSLCLINVC  4.34 ± 0.072
16. AISPVGYCDSTFVFSTSLCG  4.13 ± 0.12
17. TFLSHEGRGLRCLYYHMMPG  3.79 ± 0.14
18. RIYFVEFMESWWGVGSLKEV  3.51 ± 0.094
19. FCSTTAICYKGEKQ  3.47 ± 0.14
20. SMRYVVISKQRSILEISLRY  3.46 ± 0.047
21. YHSTTLTFERAQPSHNNTRL  3.32 ± 0.1
22. FFTAMDASRSRLKCSYAVQT  3.28 ± 0.13
23. NTSMSPSQYCC  2.86 ± 0.16
24. SSDNRFCVDDFEVGVCGVMR  2.84 ± 0.07
25. WSKVMCQWFSDIYSVTNFGC  2.76 ± 0.085
26. GKSYVYIRLGIFSMWASHRR  2.72 ± 0.08
27. PNIKNIT  2.38 ± 0.24
28. MSSSVHLGIFITQCVKTRQL  2.25 ± 0.22
29. CAPYTVLGYGLGTQFHAGEN  1.8 ± 0.1
30. PMISFSLTMRDNCYSGWLCN  1.63 ± 0.21
31. RQARRRRTSRQHEKGV  1.49 ± 0.16
32. MILNQMYDKFYSRLSSITSR  1.31 ± 0.66
33. LEVHKGGLNVLSHEGLDVET  1.19 ± 0.4
34. TKTTWSDPGG  0.922 ± 0.43
35. LSHMLDLRGNNKSFWCYVEG  0.89 ± 0.44
36. YDVRLFKLTTTSFAIVLSEW  0.823 ± 0.21
37. RWIVGQRRKIESWWQMVPIY  0.81 ± 0.4
38. GDYTYRG  0.773 ± 0.66
39. AANRPGTSC  0.767 ± 0.74
40. VMGIEMIFVVGLWQLEDVKG  0.747 ± 0.23
41. KCCILMLKA  0.745 ± 0.49
42. SNYSTGHGAGMEDRRLEMGG  0.717 ± 0.49
43. RNLTFYKTSPVGRC  0.712 ± 0.4
44. YCKQNESVLDPSIDSLRVLP  0.673 ± 0.26
45. WTGHMPMSLVHLMIGWHGHY  0.637 ± 0.62
46. CLLVEHNMLWWWSCCIGCWK  0.635 ± 0.37
47. KVNKCIIRQLDLNMPLASRW  0.584 ± 0.46
48. GTMPNGCKS  0.541 ± 0.74
49. IIWYTTFVDLLTIIDDGRLW  0.499 ± 0.49
50. LIFSAEMNLIVTDWTVRLSS  0.496 ± 0.8
51. VSVGACTHTLYKVRALSQGV  0.486 ± 0.26
52. RSWVLLSYAPFHCS  0.482 ± 0.19
53. LELVCRPISMALLEEWKGTR  0.393 ± 0.48
54. YQGNIRVGISRSRK  0.36 ± 0.41
55. FDQTFEDWWPAYNHSRFNQH  0.352 ± 0.51
56. RIISCRN  0.331 ± 0.43
57. VFFRLMKPNFGLP  0.199 ± 1.1
58. YVLDFSNWIGDTADSIVAV  0.145 ± 0.56
59. HLLQRLSRGHMSALKTRLSW  0.123 ± 1
60. HAAGSLHMDYLV  0.122 ± 1.1
61. FLGEAHFI  0.078 ± 0.4
62. FRIGFVFCVSYCRECRN  0.065 ± 1.1
63. SFKICKLMNSNRFFVGICCT  0.057 ± 1.1
64. PRVPCTHHMPGW  0.027 ± 0.65
65. VNPCVWIRIYWRS  -0.014 ± 0.65
66. WYALARCYCDGPFSGGWFRM  -0.022 ± 0.27
67. RLHKTSNITTWIAHPLHNR  -0.038 ± 0.65
68. TLTRGSISSIVDASWNMEKT  -0.061 ± 0.46
69. IGLDRWLMSLRRYAMHK  -0.089 ± 0.18
70. KVMNNIL  -0.093 ± 0.36
71. YSISQLWYTLTIHVPFHPLK  -0.114 ± 0.15
72. GVSIS  -0.116 ± 0.76
73. QRGRGERMFITQCLVDRMCF  -0.117 ± 0.31
74. GYWEAFFQLGASPYAGRSRG  -0.13 ± 0.76
75. PAPCTFRYLAITCGLTRYTC  -0.143 ± 0.34
76. GHFAF  -0.159 ± 1.1
77. FYSLQFLTILLVTFMEATYP  -0.165 ± 0.27
78. SSFWFSGAADINRVVLRGIE  -0.175 ± 0.32
79. AIRADTDFDYTIEGSVDGGG  -0.199 ± 0.63
80. FLGLTDWRVDYCSEWQGFAQ  -0.199 ± 1.1
81. SMATSSYMLSAMRTCTLRSV  -0.231 ± 0.63
82. RWIVRDSFESWFMVLD  -0.267 ± 0.35
83. KFKDHVGLYKPMGSRKFLDW  -0.28 ± 0.28
84. ISQAWVS  -0.329 ± 0.25
85. AKFMGLCRDKGLQLC  -0.331 ± 0.55
86. SGFNGFSLNHFQNQFKTPRS  -0.356 ± 1.1
87. SRWLGAKCSSRC  -0.361 ± 0.48
88. GCIAIIDWMNLTLFTLLLSS  -0.375 ± 0.76
89. TCVRWYGNIW  -0.424 ± 0.27
90. SMYSVYSFYTEIGTL  -0.441 ± 0.48
91. SGFVIWRRQHFEFQEVRSS  -0.515 ± 1.1
92. TGYVTRIVAAFCSQKIFVWV  -0.547 ± 0.49
93. KMPWMTCSHVTFTRIHSKIS  -0.57 ± 0.48
94. CAVVRGLTVKAVL  -0.64 ± 0.76
95. RLNALLVWFVRVSMALVRES  -0.661 ± 1.1
96. LRLGHVIPGVKNCREEND  -0.745 ± 0.3
97. DRLVGVTLYSTVYSDYSSSG  -0.768 ± 1.1
98. RRTVQWVWAVYIV  -0.803 ± 0.45
99. LGITITARAIIE  -0.898 ± 1.1
100. SKMWTIRYFSLVRCLHGLLN  -0.985 ± 0.45
101. RVYLFFYAYHHVICANSSYK  -1.11 ± 0.56
102. LYDMTCRSSVKGNV  -1.19 ± 0.75
103. GIPVMPTDSRGTPGVMVFEY  -1.25 ± 1
104. MKSLLLLCCYSELAYLCGML  -1.34 ± 0.4
105. LKPPLVAHHGNILCGFLGDG  -1.39 ± 0.78
106. YLRFYRSIINILIKGSAFCV  -1.49 ± 1.1
107. RFFYYVVTLDAFNTFHKHLG  -1.56 ± 1.1
108. YRSIC  -1.63 ± 0.75
109. WFFYWMYRGYSINMIFEMLD  -2.15 ± 0.49

For NHVARMFLKQRFFSNMS, the amyloid nucleation score was “inactive”.
For FYIFPQAFRLWKSLS, the amyloid nucleation score was “inactive”.
For FDYFF, the amyloid nucleation score was “inactive”.
For RVSHREFYLRGTLVETLLDD, the amyloid nucleation score was “inactive”.
For FSFRVMRHSKKGK, the amyloid nucleation score was “inactive”.
For VFTILSCWGPYRCVVTRALL, the amyloid nucleation score was “inactive”.
For DMYDLASRSKRELF, the amyloid nucleation score was “inactive”.
With SNSKVSVLIFFSAHKGECAA the amyloid nucleation score was “inactive”.
In the case of FCLFW, the amyloid nucleation score is reported as “inactive”.
For LFYSPSVGCWFLFSYGPHIG, the amyloid nucleation score was “inactive”.
In the case of DCPLYRWDTWRLSGSRT, the amyloid nucleation score is reported as “inactive”.
For EIDQSYVNTSSQQTSIYV, the amyloid nucleation score was “inactive”.
With VPICLSS the amyloid nucleation score was “inactive”.
In the case of LHTYYGMCLPRVENISENRV, the amyloid nucleation score is reported as “inactive”.
With YRVYLVFYDFVFVFYMSKYL the amyloid nucleation score was “inactive”.
With FVFTLIWGHSSKLSESVSFL the amyloid nucleation score was “inactive”.
